Patent US6403764
Residue numbers refer to the chain shown, from its start. Names and notes keep the numbering of the source.

T1: human IGFBP-1 (human, UniProt P08833 26-259)
T1 construct: mature; Secreted recombinant protein; also called IGFBP-I
T1 sequence (looked up): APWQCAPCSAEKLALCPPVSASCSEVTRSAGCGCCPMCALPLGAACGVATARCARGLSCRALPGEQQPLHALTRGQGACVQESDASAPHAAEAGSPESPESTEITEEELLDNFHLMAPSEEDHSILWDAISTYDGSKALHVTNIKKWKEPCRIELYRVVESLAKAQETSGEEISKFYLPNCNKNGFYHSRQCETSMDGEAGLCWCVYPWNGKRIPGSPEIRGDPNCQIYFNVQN

B1: IGF-I D12A displayed on phage (ligand)
chain: SPETLCGAELVAALQFVCGDRGFYFNKPTGYGSSSRRAPQTGIVDECCFRSCDLRRLEMYCAPLKPAKSV
notes: On phage; G1S-A70V template; not shown: M13 gene III fragment (residues 249-406), the display carrier, and its junction
B2: IGF-I K27A displayed on phage (ligand)
chain: B1 chain with A12D, K27A
notes: On phage; G1S-A70V template; not shown: Display carrier: M13 gene III protein fragment (residues 249-406) and the junction to it
B3: IGF-I T4A displayed on phage (ligand, not shown: large carriers; small tags and cut ends)
chain: B1 chain with T4A, A12D
notes: On phage; G1S-A70V template
B4: IGF-I L10A displayed on phage (ligand)
chain: B1 chain with L10A, A12D
notes: as for B1
B5: IGF-I E9A displayed on phage (ligand)
chain: B1 chain with E9A, A12D
notes: as for B1
B6: IGF-I L64A displayed on phage (ligand)
chain: B1 chain with A12D, L64A
notes: On phage; G1S-A70V template; not shown: M13 gene III protein fragment (residues 249-406), the phage display carrier, and its junction to IGF-I
B7: IGF-I Q40A displayed on phage (ligand, not shown: large carriers)
chain: B1 chain with A12D, Q40A
notes: On phage; G1S-A70V template
B8: IGF-I S35A displayed on phage (ligand, not shown: large carriers)
chain: B1 chain with A12D, S35A
notes: On phage; G1S-A70V template
B9: IGF-I Y24A displayed on phage (ligand)
chain: B1 chain with A12D, Y24A
notes: as for B2
B10: IGF-I G19A displayed on phage (ligand)
chain: B1 chain with A12D, G19A
notes: as for B1
B11: IGF-I P66A displayed on phage (ligand)
chain: B1 chain with A12D, P66A
notes: as for B6
B12: IGF-I E58A displayed on phage (ligand)
chain: B1 chain with A12D, E58A
notes: as for B6
B13: IGF-I L14A displayed on phage (ligand)
chain: B1 chain with A12D, L14A
notes: as for B1
B14: IGF-I L54A displayed on phage (ligand)
chain: B1 chain with A12D, L54A
notes: On phage; G1S-A70V template; not shown: Display partner: M13 gene III protein fragment (residues 249-406, mature count) and the junction to it
B15: IGF-I K65A displayed on phage (ligand)
chain: B1 chain with A12D, K65A
notes: as for B6
B16: IGF-I R37A displayed on phage (ligand, not shown: large carriers)
chain: B1 chain with A12D, R37A
notes: On phage; G1S-A70V template
B17: IGF-I N26A displayed on phage (ligand)
chain: B1 chain with A12D, N26A
notes: as for B2
B18: IGF-I L57A displayed on phage (ligand)
chain: B1 chain with A12D, L57A
notes: as for B6
B19: IGF-I D20A displayed on phage (ligand)
chain: B1 chain with A12D, D20A
notes: as for B2
B20: IGF-I R56A displayed on phage (ligand)
chain: B1 chain with A12D, R56A
notes: as for B14
B21: IGF-I L5A displayed on phage (ligand, not shown: large carriers; small tags and cut ends)
chain: B1 chain with L5A, A12D
notes: On phage; G1S-A70V template
B22: IGF-I F25A displayed on phage (ligand)
chain: B1 chain with A12D, F25A
notes: as for B2
B23: IGF-I S69A displayed on phage (ligand, not shown: large carriers; small tags and cut ends)
chain: B1 chain with A12D, S69A
notes: On phage; G1S-A70V template
B24: IGF-I F16A displayed on phage (ligand)
chain: B1 chain with A12D, F16A
notes: as for B1
B25: IGF-I Y60A displayed on phage (ligand)
chain: B1 chain with A12D, Y60A
notes: as for B6
B26: IGF-I V17A displayed on phage (ligand)
chain: B1 chain with A12D, V17A
notes: as for B1
B27: IGF-I F23A displayed on phage (ligand)
chain: B1 chain with A12D, F23A
notes: as for B2
B28: IGF-I E3A displayed on phage (ligand, not shown: large carriers; small tags and cut ends)
chain: B1 chain with E3A, A12D
notes: On phage; G1S-A70V template
B29: IGF-I G22A displayed on phage (ligand)
chain: B1 chain with A12D, G22A
notes: as for B2
B30: IGF-I S51A displayed on phage (ligand)
chain: B1 chain with A12D, S51A
notes: as for B14
B31: IGF-I D53A displayed on phage (ligand)
chain: B1 chain with A12D, D53A
notes: as for B14
B32: IGF-I K68A displayed on phage (ligand, not shown: large carriers; small tags and cut ends)
chain: B1 chain with A12D, K68A
notes: On phage; G1S-A70V template
B33: IGF-I Q15A displayed on phage (ligand)
chain: B1 chain with A12D, Q15A
notes: as for B1
B34: IGF-I M59A displayed on phage (ligand)
chain: B1 chain with A12D, M59A
notes: as for B6
B35: IGF-I R21A displayed on phage (ligand)
chain: B1 chain with A12D, R21A
notes: as for B2
B36: IGF-I R55A displayed on phage (ligand)
chain: B1 chain with A12D, R55A
notes: as for B14

Assays:
[1] = target: T2, recombinant human IGFBP-3 (human, UniProt P17936 28-291); assay: phage ELISA value repeated from Table I; IC50mut/IC50 G1S-A70V
T2 construct: mature; Secreted recombinant protein
T2 sequence (P17936 28-291): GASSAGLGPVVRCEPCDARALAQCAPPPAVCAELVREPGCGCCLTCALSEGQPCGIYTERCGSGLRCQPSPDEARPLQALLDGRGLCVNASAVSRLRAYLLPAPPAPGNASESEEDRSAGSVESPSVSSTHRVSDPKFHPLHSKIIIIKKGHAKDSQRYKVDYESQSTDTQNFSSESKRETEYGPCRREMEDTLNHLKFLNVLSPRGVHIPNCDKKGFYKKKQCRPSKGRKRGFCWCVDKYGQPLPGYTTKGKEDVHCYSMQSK

human IGFBP-1 [2] = target: T1, human IGFBP-1; assay: as above
[3] = target: T2, recombinant human IGFBP-3; assay: competitive phage ELISA; IC50mut/IC50 G1S-A70V
human IGFBP-1 [4] = target: T1, human IGFBP-1; assay: competitive phage ELISA; IC50mut/IC50 G1S-A70V
human IGFBP-1 [5] = target: T1, human IGFBP-1; assay: competitive phage ELISA
Procedure: (§1) Phage particles were harvested and resuspended in PBS buffer as described in Lowman, H. B., "Phage Display of Peptide Libraries on Protein Scaffolds," in Cabilly, S. (ed.), *Combinatorial Peptide Library Protocols* (Humana Press Inc.: Totowa, N.J., 1998), pp. 249–264. Then phage concentrations were normalized to yield a maximal ELISA signal of 0.2–0.4 for each mutant (Lowman, in Cabilly, S. (ed.), supra). Threefold serial dilutions of soluble competitor were prepared on non-absorbent microtiter plates (Nunc, F, 96 wells) with binding buffer (0.5% TWEEN™ 20/PBS) containing phage at the previously-determined concentrations. The dilution range of competitor protein extended over six orders of magnitude, starting at 5 µM for IGFBP-1 and 500 nM for IGFBP-3. After blocking, the plates containing immobilized target were washed with 0.05% TWEEN™/PBS buffer and subsequently incubated with 80 µl/well of the premixed phage-competitor solutions for 1 hour at room temperature. […] Numbers in Table I represent mean±standard deviation of individually assessed $IC50$ values.
(§2) At least two different clones of every mutant were tested.

[6] = target: T2, recombinant human IGFBP-3; assay: competitive phage ELISA
Procedure: as §1, §2

| Molecule | IC50 (human IGFBP-1 [5]) [nM] | IC50 [6] [nM] | also measured |
| --- | --- | --- | --- |
| IGF-I G1S-A70V displayed on phage (from UniProt P69168 267-424) (ligand) | – | – | relative IC50 [1]: 1; relative IC50 (human IGFBP-1 [2]): 1; relative IC50 [3]: 1; relative IC50 (human IGFBP-1 [4]): 1 |
| IGF-I S33A displayed on phage (from UniProt P69168 267-424) (ligand) | – | – | relative IC50 [3]: 1.3; relative IC50 (human IGFBP-1 [4]): 1.1 |
| IGF-I G7A displayed on phage (from UniProt P69168 267-424) (ligand) | – | – | relative IC50 [3]: 6.1; relative IC50 (human IGFBP-1 [4]): > 100 |
| IGF-I G32A displayed on phage (from UniProt P69168 267-424) (ligand) | – | – | relative IC50 [3]: 1; relative IC50 (human IGFBP-1 [4]): 1.3 |
| IGF-I P28A displayed on phage (from UniProt P69168 267-424) (ligand) | – | – | relative IC50 [3]: 1.9; relative IC50 (human IGFBP-1 [4]): 1.1 |
| IGF-I S34A displayed on phage (from UniProt P69168 267-424) (ligand) | – | – | relative IC50 [3]: 2.2; relative IC50 (human IGFBP-1 [4]): 1.2 |
| IGF-I G30A displayed on phage (from UniProt P69168 267-424) (ligand) | – | – | relative IC50 [3]: 0.8; relative IC50 (human IGFBP-1 [4]): 0.9 |
| IGF-I T29A displayed on phage (from UniProt P69168 267-424) (ligand) | – | – | relative IC50 [3]: 1.6; relative IC50 (human IGFBP-1 [4]): 0.9 |
| Ala(1-3)-IGF-I displayed on phage (from UniProt P69168 267-424) (ligand) | 90.4 | – | relative IC50 [3]: 1.5; relative IC50 (human IGFBP-1 [4]): 11 |
| IGF-I Y31A displayed on phage (from UniProt P69168 267-424) (ligand) | – | – | relative IC50 [3]: 1; relative IC50 (human IGFBP-1 [4]): 0.8 |
| B1 | 4.3 | 1.49 | – |
| B2 | 12.8 | 0.66 | – |
| B3 | 19.4 | 0.8 | – |
| B4 | 311 | 3.55 | – |
| B5 | 8.6 | 1.32 | – |
| B6 | 12.1 | 0.93 | – |
| B7 | 10.2 | 0.56 | – |
| B8 | 11.7 | 0.47 | – |
| B9 | 13.3 | 2.53 | – |
| B10 | 11 | 0.9 | – |
| B11 | 9.4 | 0.57 | – |
| B12 | 11.9 | 1.03 | – |
| B13 | 36.7 | 0.9 | – |

| Molecule | IC50 (human IGFBP-1 [5]) [nM] | IC50 [6] [nM] | also measured |
| --- | --- | --- | --- |
| B14 | 23.1 | 1.83 | – |
| B15 | 12.4 | 0.69 | – |
| B16 | 12.3 | 0.75 | – |
| B17 | 9.1 | 0.9 | – |
| B18 | 21.8 | 1.78 | – |
| B19 | 8.4 | 1.11 | – |
| B20 | 13.1 | 1 | – |
| B21 | 55.3 | 1.53 | – |
| B22 | 181 | 3.69 | – |
| B23 | 12.8 | 0.71 | – |
| B24 | 57.8 | 1.32 | – |
| B25 | 6.6 | 0.52 | – |
| B26 | 42.9 | 3.67 | – |
| B27 | 10.9 | 2.18 | – |
| B28 | 278 | 1.05 | – |
| B29 | 15.9 | 2.07 | – |
| B30 | 13.4 | 0.65 | – |
| B31 | 15.3 | 1.05 | – |
| B32 | 10.5 | 0.76 | – |
| B33 | 13.9 | 1.26 | – |
| B34 | 13.1 | 0.74 | – |
| B35 | 7.1 | 0.58 | – |
| B36 | 9 | 0.66 | – |
